Positions count from the first letter of the chain named. Names may count otherwise. “And” between values parts separate entries of the source, which are not always exact repeats. Equal values may be shown once. “Also recorded” adds a separate entry of the source. Values belong to the molecule of their own block, whether it stands above or below them. Ends that are not written are not given here.
Tests used:
EHD2 [1] = target: T1, EHD2 (Mus musculus, UniProt Q8BH64); assay: ITC nucleotide binding to EHD2; conditions: ITC at 10° C.
T1 construct: Mouse EHD2 full-length protein and all mutants were expressed as N-terminal His-fusions followed by a PreScission cleavage site; His (N, cleaved yes); made in house; host or cells: Escherichia coli BL21 DE3 Rosetta
T1 sequence (Q8BH64 1-543): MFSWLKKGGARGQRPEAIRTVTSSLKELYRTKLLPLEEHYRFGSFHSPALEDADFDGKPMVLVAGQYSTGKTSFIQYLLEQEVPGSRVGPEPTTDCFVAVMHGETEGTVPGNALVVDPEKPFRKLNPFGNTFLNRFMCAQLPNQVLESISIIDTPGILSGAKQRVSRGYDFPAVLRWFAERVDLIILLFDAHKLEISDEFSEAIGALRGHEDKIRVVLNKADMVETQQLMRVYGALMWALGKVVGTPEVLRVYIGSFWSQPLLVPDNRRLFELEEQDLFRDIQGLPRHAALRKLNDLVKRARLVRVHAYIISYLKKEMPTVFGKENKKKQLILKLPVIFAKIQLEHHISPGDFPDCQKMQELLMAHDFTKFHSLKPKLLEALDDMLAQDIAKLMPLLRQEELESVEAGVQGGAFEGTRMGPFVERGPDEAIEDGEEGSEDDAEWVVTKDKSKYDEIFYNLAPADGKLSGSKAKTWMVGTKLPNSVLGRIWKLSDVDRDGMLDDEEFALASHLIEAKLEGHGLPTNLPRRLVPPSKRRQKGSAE
Method: (§1) Amino acid numbering corresponds to mouse EHD2. b, EHD2 binds to adenine nucleotides, as determined by ITC. For clarity, ΔΔH=ΔHn−ΔH1 is plotted. […] Images were acquired close to the basal cell surface. f, Nucleotide hydrolysis was measured by HPLC in the absence (empty symbols) or presence of Folch liposomes (filled symbols). Data represent mean and standard deviation for two (intrinisic reactions) or three (stimulated reactions) independent experiments.
(§2) ITC measurements were performed at 10° C. in 20 mM HEPES (pH 7.5), 300 mM NaCl, 2 mM MgCl2. Liposome binding assays were performed as described previously (www.endocytosis.org). Multiple turnover ATPase assays were performed in 20 mM HEPES (pH 7.5), 135 mM NaCl, 15 mM KCl, 1 mM MgCl2 at 30° C. with 10 μM EHD2 (or mutants) as enzyme and 100 μM ATP as substrate, in the absence or presence of 1 mg/ml Folch liposomes (Sigma-Aldrich).
Mouse full-length EHD2 was expressed in bacteria and purified to homogeneity (FIG. 5). The purified protein was nucleotide-free as judged by HPLC analysis. […] It was previously reported that EHDs—despite having a predicted G-domain—bind to adenine nucleotides^15. […] We still refer to this domain as a G-domain because the sequence and fold (see below) are clearly similar to other G-domains. […] Using synthetic liposomes containing various different phosphatidyl-inositols (PI) (FIG. 1c) we observed best binding to liposomes containing PI(4,5)bisphosphate (PIP2).

EH-domain of EHD2 = target: T2, EH-domain of EHD2 (Mus musculus, UniProt Q8BH64); assay: ITC peptide binding to the EH-domain of EHD2; conditions: ITC at 10° C.; for affinity of xPF peptide to the EH-domain of EHD2 by ITC: 100 mM HEPES (pH 7.5), 50 mM NaCl, 200 μM CaCl2
T2 sequence (Q8BH64 449-537 limits assumed): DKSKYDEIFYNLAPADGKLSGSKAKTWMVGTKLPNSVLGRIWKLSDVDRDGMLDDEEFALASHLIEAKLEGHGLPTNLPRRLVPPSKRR
Source text: EH-domains are low affinity protein-protein interactors normally found in endocytic multi-subunit assemblies. A likely purpose of the EH-domain is in recruitment of the protein to sites of action. […] An alternative explanation for the function of the EH-domain in the oligomer can be proposed based on the presence of two conserved PF motifs (NPF and IPF) in a disordered surface loop at the side of the G-domain between β-sheet 2A and 2B. In our proposed oligomer, the EH-domains from one dimer are close to the side-site NPF motif of the adjacent dimer (FIG. 4c) and thus after oligomerisation on membranes they may switch position from the top site position in the dimer to the side site in the opposing dimer. […] A dominant negative mutant in C. elegans Rme1 is found in the linker between the EH-domain and the helical domain^3 pointing to the importance of this flexible linker.

EHD2 [2] = target: T1, EHD2; assay: Multiple turnover ATPase assay (nucleotide hydrolysis by HPLC) with or without Folch liposomes; type: biochemical
Method: as §1, §2
Reactions were started by the addition of the protein to the final reaction mix and nucleotide hydrolysis was followed using standard HPLC measurement^27. Initial rates were determined by applying a linear fit to data points up to 40% nucleotide hydrolysis. For electron microscopic studies, 2.5 μM EHD2 in 20 mM HEPES (pH 7.5), 150 mM NaCl, 1 mM MgCl2 was incubated for 15 min at 25° C. in the presence of 1 mM nucleotide and 0.05 mg/ml (final concentration) of the indicated liposomes. Samples were spotted on carbon-coated copper grids (Canemco and Marivac) and negatively stained with 2% uranyl acetate.
We next monitored the effect of membrane-binding on the ATPase activity of. EHD2 under multiple-turnover conditions (10-fold excess of ATP over EHD2), in the presence and absence of Folch liposoines (FIG. 1f). The intrinsic/background ATPase activity is extremely slow (kobs=0.7 h^−1) but is stimulated 8-fold in the presence of Folch or PS liposomes (kobs=5.6 h^−1).

HeLa cells = assay: Over-expression of EGFP-tagged EHD2 and mutants in HeLa cells (confocal / live imaging); type: cell-based; conditions: 24 h after transfection, fixed
Method: as §1
Nucleotide hydrolysis was measured as described in FIG. 1f. In vitro tubulation activity of PS liposomes was analysed as described in FIG. 1d. f, EGFP-tagged mutants were over-expressed in HeLa cells. […] For each construct, three independent experiments with ≈50 cells/experiments were analysed.
Ultracentrifugation. Sedimentation velocity experiments were performed in a Beckman Optima XLA ultracentrifuge, using an An-60Ti rotor. Centrifugation was at 50,000 rev×min and 5° C. at an EHD2 concentration of 15 μM, with scans as fast as possible (˜1.5 min intervals). The data were analysed using DCDT+ v.2^44,45, with the partial specific volume for the protein (from the amino acid composition) and solvent density and viscosity calculated using Sednterp^46. Selected scans (at equal, ˜15 min intervals), and of g(s20,w) (the amount of material sedimenting between s20,w and (s20,w+δs)) and also the residuals for fitting the data with DCDT+, were plotted with the program profit v.5.6.7 (Quantum soft, Switzerland). Cell biology. N-terminal EGFP-tagged EHD2 and all mutants were over-expressed in HeLa cells from the pEGFP-C3 vector (Clontech). HeLa cells were grown as per ECACC guidelines with 10% fetal bovine serum and transfected using Genejuice (Novagen) for transient protein expression. 24 h after transfection, cells were fixed for 10 min at 37° C. in 3% paraformaldehyde and mounted. All confocal images were taken sequentially using a BioRad Radiance system and LaserSharp software (Biorad). For real-time microscopy, transfected cells on glass-bottom Petri dishes (WillCo Wells BV, Amsterdam) were washed with 25 mM HEPES (pH 7.5), 125 mM NaCl, 5 mM KCl, 10 mM D-glucose, 1 mM MgCl2, 2 mM CaCl), and epifluorescence images were taken using an Olympus IX70 microscope (Southhall, UK) and Argon laser (Melles Griot, Carlsbad, Calif.) with a Princeton instruments (Trenton, N.J.) cooled I-PentaMAX camera with MetaMorph software (Universal imaging).
EHD2 wild-type was over-expressed in HeLa cells for 24 h and imaged by EPI-fluorescence for approximately 30 min.
EHD2 T94A was over-expressed in HeLa cells for 24 h and imaged by EPI-fluorescence for approximately 30 min. […] EHD2 I157Q was over-expressed in HeLa cells for 24 h and imaged by EPI-fluorescence for approximately 30 min.

n (fitted ITC value), nucleotide binding to EHD2 (EHD2 [1]): 0.9
Kd (EHD2 [1]; 20 mM HEPES (pH 7.5), 300 mM NaCl, 2 mM MgCl2, read-out: affinity to EHD2 determined by ITC): 50 µM and ~50 µM
Molecule: Nc1ncnc2c1ncn2[C@@H]1O[C@H](COP(=O)(O)OP(=O)(O)O)[C@@H](O)[C@H]1O [ADP]

n (fitted ITC value), peptide binding to EH-domain (EH-domain of EHD2): 1.33
Molecule: KLNPFGNT [KLNPFGNT]

Molecule: Nc1nc2c(ncn2[C@@H]2O[C@H](COP(=O)(O)OP(=O)(O)OP(O)(O)=S)[C@@H](O)[C@H]2O)c(=O)[nH]1 [GTP-γ-S]
affinity to EHD2 determined by ITC (EHD2 [1]; 20 mM HEPES (pH 7.5), 300 mM NaCl, 2 mM MgCl2): No binding signal was observed

affinity of xPF peptide to the EH-domain of EHD2 by ITC (EH-domain of EHD2): did not (show detectable binding
Molecule: RMGPFVER [peptide from EHD2 linker containing GPF motif]
affinity of xPF peptide to the EH-domain of EHD2 by ITC (EH-domain of EHD2; listed as top site GPF peptide): not the top site GPF peptide, bound with a measurable affinity

affinity of xPF peptide to the EH-domain of EHD2 by ITC (EH-domain of EHD2): did not (show detectable binding
Molecule: PEKPFRKL [peptide from EHD2 containing KPF motif]

Molecule: Nc1nc2c(ncn2[C@@H]2O[C@H](COP(=O)(O)OP(=O)(O)OP(=O)(O)O)[C@@H](O)[C@H]2O)c(=O)[nH]1 [GTP, reference compound]
GTP hydrolysis by EHD2 (in words) (EHD2 [2]; presence or absence of Folch liposomes): not stimulated; also recorded: not hydrolysed

B1: EHD2 E91Q (protein)
chain: T1 sequence (Q8BH64 1-543) with E91Q
assembly-stimulated ATP hydrolysis (Q8BH64): all mutants showed reduced or completely abolished assembly-stimulated ATP hydrolysis

B2: EHD2 R167E (protein)
chain: T1 sequence (Q8BH64 1-543) with R167E
assembly-stimulated ATP hydrolysis (Q8BH64): all mutants showed reduced or completely abolished assembly-stimulated ATP hydrolysis
nucleotide hydrolysis (basal and Folch-stimulated ATPase) (Q8BH64): mutant R167E (in Switch II) showed an increased basal ATPase activity which was not further stimulated by Folch liposomes
intrinsic/basal ATPase activity (in words) (EHD2 [2]; absence of membranes): increased basal ATPase activity
membrane-stimulated ATPase activity (in words) (EHD2 [2]; presence of Folch liposomes): not further stimulated by Folch liposomes

B3: K324D: EHD2 polybasic cluster mutant (protein, UniProt Q8BH64 1-543, looked up, variant K324D)
EH domain-containing protein 2: T1 sequence (Q8BH64 1-543) with K324D
distribution of EGFP-tagged protein over-expressed in HeLa cells (HeLa cells): completely cytoplasmic distribution

B4: EHD2 D198R (protein)
chain: T1 sequence (Q8BH64 1-543) with D198R
assembly-stimulated ATP hydrolysis (Q8BH64): all mutants showed reduced or completely abolished assembly-stimulated ATP hydrolysis

B5: EHD2 K193D (protein)
chain: T1 sequence (Q8BH64 1-543) with K193D
assembly-stimulated ATP hydrolysis (Q8BH64): all mutants showed reduced or completely abolished assembly-stimulated ATP hydrolysis

B6: K329D: EHD2 polybasic cluster mutant (protein, UniProt Q8BH64 1-543, looked up, variant K329D)
EH domain-containing protein 2: T1 sequence (Q8BH64 1-543) with K329D
distribution of EGFP-tagged protein over-expressed in HeLa cells (HeLa cells): completely cytoplasmic distribution

B7: K327D: EHD2 polybasic cluster mutant (protein, UniProt Q8BH64 1-543, looked up, variant K327D)
EH domain-containing protein 2: T1 sequence (Q8BH64 1-543) with K327D
distribution of EGFP-tagged protein over-expressed in HeLa cells (HeLa cells): completely cytoplasmic distribution

Reference: patent US20120214173A1, “Methods of Identifying Modulators of an Ehd Polypeptide” (priority 2007, published 2012)
